Experimental findings from patent US20190054182A1 are described below.

The term Kd denotes the constant that tells how readily two partners part at equilibrium. Read a low Kd as a tighter complex. In general, koff refers to the first-order rate constant of dissociation. A high value points to a short-lived complex. For orientation: kon means a measure of how fast the partners come together.

The target of assay [1] is 20 pseudotyped viruses representing 10 different HIV-1 clades. Description: cell-based or functional assay.
The target of assay [2] is panel of 208 different HIV-1 Env-pseudotyped viruses. As to the kind of experiment: cell-based or functional assay.
Assay [3] deals with T1, MPER binding peptide (Acetyl-[…]-Ttds-Lys-(Biotin)-NH2) (HIV-1). As to the kind of experiment: SPR (Biacore) with the MPER binding peptide.
In assay [4] the target is T1, MPER binding peptide ….
Assay [5] has as its target 20 pseudotyped viruses representing 10 different HIV-1 clades. As to the kind of experiment: cell-based or functional assay. The source holds these as a separate data set.

Where two headings read alike, the source gives them in different places.

B1: Binding Protein 2 (protein)
light 1: DFVLTQSPHSLSVTPGESASISCKSSHSLIHGDRNNYLAWYVQKPGRSPQLLIYLASSRASGVPDRFSGSGSDKDFTLKISRVETEDVGTYYCMQGRESPWTFGQGTKVDIKDKTHTASELTQDPAVSVALKQTVTITCRGDSLRSHYASWYQKKPGQAPVLLFYGKNNRPSGIPDRFSGSASGNRASLTITGAQAEDEADYYCSSRDKSGSRLSVFGGGTKLTVLDKTHTRTVAAPSVFIFPPSDEQLKSGTASVVCLLNNFYPREAKVQWKVDNALQSGNSQESVTEQDSKDSTYSLSSTLTLSKADYEKHKVYACEVTHQGLSSPVTKSFNRGEC
heavy 1: EVRLVESGGGLVKPGGSLRLSCSASGFDFDNAWMTWVRQPPGKGLEWVGRITGPGEGWSVDYAESVKGRFTISRDNTKNTLYLEMNNVRTEDTGYYFCARTGKYYDFWSGYPPGEEYFQDWGQGTLVIVSSDKTHTQVHLTQSGPEVRKPGTSVKVSCKAPGNTLKTYDLHWVRSVPGQGLQWMGWISHEGDKKVIVERFKAKVTIDWDRSTNTAYLQLSGLTSGDTAVYYCAKGSKHRLRDYALYDDDGALNWAVDVDYLSNLEFWGQGTAVTVSSDKTHTASTKGPSVFPLAPSSKSTSGGTAALGCLVKDYFPEPVTVSWNSGALTSGVHTFPAVLQSSGLYSLSSVVTVPSSSLGTQTYICNVNHKPSNTKVDKKVEPKSCDKTHTCPPCPAPELLGGPSVFLFPPKPKDTLMISRTPEVTCVVVDVSHEDPEVKFNWYVDGVEVHNAKTKPREEQYNSTYRVVSVLTVLHQDWLNGKEYKCKVSNKALPAPIEKTISKAKGQPREPQVYTLPPCRDELTKNQVSLWCLVKGFYPSDIAVEWESNGQPENNYKTTPPVLDSDGSFFLYSKLTVDKSRWQQGNVFSCSVLHEALHSHYTQKSLSLSPG
heavy 2: RAHLVQSGTAMKKPGASVRVSCQTSGYTFTAHILFWFRQAPGRGLEWVGWIKPQYGAVNFGGGFRDRVTLTRDVYREIAYMDIRGLKPDDTAVYYCARDRSYGDSSWALDAWGQGTTVVVSAASTKGPSVFPLAPSSKSTSGGTAALGCLVKDYFPEPVTVSWNSGALTSGVHTFPAVLQSSGLYSLSSVVTVPSSSLGTQTYICNVNHKPSNTKVDKKVEPKSCDKTHTCPPCPAPELLGGPSVFLFPPKPKDTLMISRTPEVTCVVVDVSHEDPEVKFNWYVDGVEVHNAKTKPREEQYNSTYRVVSVLTVLHQDWLNGKEYKCKVSNKALPAPIEKTISKAKGQPREPQVCTLPPSRDELTKNQVSLSCAVKGFYPSDIAVEWESNGQPENNYKTTPPVLDSDGSFFLVSKLTVDKSRWQQGNVFSCSVLHEALHSHYTQKSLSLSPG
light 2: YIHVTQSPSSLSVSIGDRVTINCQTSQGVGSDLHWYQHKPGRAPKLLIHHTSSVEDGVPSRFSGSGFHTSFNLTISDLQADDIATYYCQVLQFFGRGSRLHIKRTVAAPSVFIFPPSDEQLKSGTASVVCLLNNFYPREAKVQWKVDNALQSGNSQESVTEQDSKDSTYSLSSTLTLSKADYEKHKVYACEVTHQGLSSPVTKSFNRGEC
In assay [1], B1 returned a Geometric Mean (IC80) of 0.222 µg/mL and a Median IC80 of 0.375 µg/mL. Moreover, in assay [2], the Geometric Mean (IC80) was determined as 0.028 µg/mL and the Median IC80 is 0.026 µg/mL. Also, the fold higher affinity than the MPER antibody in assay [3] came out at 3.1 fold. Further, in assay [4], the Ka stood at 1.65e+08 M⁻¹, the Kd came to 6.05 nM, the off-rate (koff) is 0.000697 s⁻¹ and the kon came out at 115000 M⁻¹ s⁻¹.

B2: Binding Protein 3 (protein)
light 1: ASELTQDPAVSVALKQTVTITCRGDSLRSHYASWYQKKPGQAPVLLFYGKNNRPSGIPDRFSGSASGNRASLTITGAQAEDEADYYCSSRDKSGSRLSVFGGGTKLTVLDKTHTDFVLTQSPHSLSVTPGESASISCKSSHSLIHGDRNNYLAWYVQKPGRSPQLLIYLASSRASGVPDRFSGSGSDKDFTLKISRVETEDVGTYYCMQGRESPWTFGQGTKVDIKDKTHTRTVAAPSVFIFPPSDEQLKSGTASVVCLLNNFYPREAKVQWKVDNALQSGNSQESVTEQDSKDSTYSLSSTLTLSKADYEKHKVYACEVTHQGLSSPVTKSFNRGEC
heavy 1: QVHLTQSGPEVRKPGTSVKVSCKAPGNTLKTYDLHWVRSVPGQGLQWMGWISHEGDKKVIVERFKAKVTIDWDRSTNTAYLQLSGLTSGDTAVYYCAKGSKHRLRDYALYDDDGALNWAVDVDYLSNLEFWGQGTAVTVSSDKTHTEVRLVESGGGLVKPGGSLRLSCSASGFDFDNAWMTWVRQPPGKGLEWVGRITGPGEGWSVDYAESVKGRFTISRDNTKNTLYLEMNNVRTEDTGYYFCARTGKYYDFWSGYPPGEEYFQDWGQGTLVIVSSDKTHTASTKGPSVFPLAPSSKSTSGGTAALGCLVKDYFPEPVTVSWNSGALTSGVHTFPAVLQSSGLYSLSSVVTVPSSSLGTQTYICNVNHKPSNTKVDKKVEPKSCDKTHTCPPCPAPELLGGPSVFLFPPKPKDTLMISRTPEVTCVVVDVSHEDPEVKFNWYVDGVEVHNAKTKPREEQYNSTYRVVSVLTVLHQDWLNGKEYKCKVSNKALPAPIEKTISKAKGQPREPQVYTLPPCRDELTKNQVSLWCLVKGFYPSDIAVEWESNGQPENNYKTTPPVLDSDGSFFLYSKLTVDKSRWQQGNVFSCSVLHEALHSHYTQKSLSLSPG
heavy 2: RAHLVQSGTAMKKPGASVRVSCQTSGYTFTAHILFWFRQAPGRGLEWVGWIKPQYGAVNFGGGFRDRVTLTRDVYREIAYMDIRGLKPDDTAVYYCARDRSYGDSSWALDAWGQGTTVVVSAASTKGPSVFPLAPSSKSTSGGTAALGCLVKDYFPEPVTVSWNSGALTSGVHTFPAVLQSSGLYSLSSVVTVPSSSLGTQTYICNVNHKPSNTKVDKKVEPKSCDKTHTCPPCPAPELLGGPSVFLFPPKPKDTLMISRTPEVTCVVVDVSHEDPEVKFNWYVDGVEVHNAKTKPREEQYNSTYRVVSVLTVLHQDWLNGKEYKCKVSNKALPAPIEKTISKAKGQPREPQVCTLPPSRDELTKNQVSLSCAVKGFYPSDIAVEWESNGQPENNYKTTPPVLDSDGSFFLVSKLTVDKSRWQQGNVFSCSVLHEALHSHYTQKSLSLSPG
light 2: YIHVTQSPSSLSVSIGDRVTINCQTSQGVGSDLHWYQHKPGRAPKLLIHHTSSVEDGVPSRFSGSGFHTSFNLTISDLQADDIATYYCQVLQFFGRGSRLHIKRTVAAPSVFIFPPSDEQLKSGTASVVCLLNNFYPREAKVQWKVDNALQSGNSQESVTEQDSKDSTYSLSSTLTLSKADYEKHKVYACEVTHQGLSSPVTKSFNRGEC
As for B2, in assay [1], the Geometric Mean (IC80) came out at 0.287 µg/mL and the Median IC80 is 0.469 µg/mL. In assay [2], this molecule gave a Geometric Mean (IC80) of 0.051 µg/mL and a Median IC80 of 0.045 µg/mL. In assay [4], this molecule returned a Ka of 6e+07 M⁻¹, a Kd of 16.7 nM, a koff of 0.000779 s⁻¹ and a kon of 46700 M⁻¹ s⁻¹.

B3: V1/V2 directed Ab “a” (antibody, V domains shown)
VH: QVHLTQSGPEVRKPGTSVKVSCKAPGNTLKTYDLHWVRSVPGQGLQWMGWISHEGDKKVIVERFKAKVTIDWDRSTNTAYLQLSGLTSGDTAVYYCAKGSKHRLRDYALYDDDGALNWAVDVDYLSNLEFWGQGTAVTVSS
VL: DFVLTQSPHSLSVTPGESASISCKSSHSLIHGDRNNYLAWYVQKPGRSPQLLIYLASSRASGVPDRFSGSGSDKDFTLKISRVETEDVGTYYCMQGRESPWTFGQGTKVDIK
In assay [1], B3 displayed a Geometric Mean (IC80) of 0.094 µg/mL and a Median IC80 of 0.06 µg/mL. In assay [2], this molecule came in with a Geometric Mean (IC80) of 0.063 µg/mL and a Median IC80 of 0.037 µg/mL.

B4: V1/V2 directed Ab “b” (antibody, V domains shown)
VH: QVQLVESGGGVVQPGTSLRLSCAASQFRFDGYGMHWVRQAPGKGLEWVASISHDGIKKYHAEKVWGRFTISRDNSKNTLYLQMNSLRPEDTALYYCAKDLREDECEEWWSDYYDFGKQLPCAKSRGGLVGIADNWGQGTMVTVSS
VL: QSVLTQPPSVSAAPGQKVTISCSGNTSNIGNNFVSWYQQRPGRAPQLLIYETDKRPSGIPDRFSASKSGTSGTLAITGLQTGDEADYYCATWAASLSSARVFGTGTKVIVL
In assay [5], B4 had a Geometric Mean (IC80) of 0.039 µg/mL and a Median IC80 of 0.051 µg/mL.

B5: MPER Ab (antibody, V domains shown)
VH: EVRLVESGGGLVKPGGSLRLSCSASGFDFDNAWMTWVRQPPGKGLEWVGRITGPGEGWSVDYAESVKGRFTISRDNTKNTLYLEMNNVRTEDTGYYFCARTGKYYDFWSGYPPGEEYFQDWGQGTLVIVSS
VL: ASELTQDPAVSVALKQTVTITCRGDSLRSHYASWYQKKPGQAPVLLFYGKNNRPSGIPDRFSGSASGNRASLTITGAQAEDEADYYCSSRDKSGSRLSVFGGGTKLTVL
With B5, in assay [2], the Geometric Mean (IC80) stood at 1.34 µg/mL and the Median IC80 is 1.69 µg/mL. In assay [4], this molecule yielded a Ka of 5.35e+07 M⁻¹, a dissociation constant Kd of 18.7 nM, a koff of 0.00109 s⁻¹ and a kon of 58500 M⁻¹ s⁻¹.
